Test results published in the supplement of paper PMC5998384.

Tests used:
HeLa Kyoto [1] = experiment: solubility in G1/S (NP-40 vs SDS abundance) (log2 ratio); higher = more soluble; conditions: cell cycle stage: G1/S
HeLa Kyoto [2] = experiment: solubility change mitosis vs G1/S (difference of NP-40 vs SDS log2 ratios) (log2 ratio difference); higher = more soluble in mitosis
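For solubility change mitosis vs G1/S (difference of NP-40 vs SDS log2 ratios) in this document: synchronized HeLa Kyoto cells (double thymidine block for G1/S, nocodazole release for mitosis), protein amounts in NP-40 versus SDS lysates quantified by mass spectrometry, three biological replicates.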
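For solubility in G1/S (NP-40 vs SDS abundance) in this document: HeLa Kyoto cells arrested at G1/S by double thymidine block, proteins quantified by TMT10plex mass spectrometry in mild NP-40 versus SDS extracts, three biological replicates.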

Chain of ARNTL (chain, as listed by the source): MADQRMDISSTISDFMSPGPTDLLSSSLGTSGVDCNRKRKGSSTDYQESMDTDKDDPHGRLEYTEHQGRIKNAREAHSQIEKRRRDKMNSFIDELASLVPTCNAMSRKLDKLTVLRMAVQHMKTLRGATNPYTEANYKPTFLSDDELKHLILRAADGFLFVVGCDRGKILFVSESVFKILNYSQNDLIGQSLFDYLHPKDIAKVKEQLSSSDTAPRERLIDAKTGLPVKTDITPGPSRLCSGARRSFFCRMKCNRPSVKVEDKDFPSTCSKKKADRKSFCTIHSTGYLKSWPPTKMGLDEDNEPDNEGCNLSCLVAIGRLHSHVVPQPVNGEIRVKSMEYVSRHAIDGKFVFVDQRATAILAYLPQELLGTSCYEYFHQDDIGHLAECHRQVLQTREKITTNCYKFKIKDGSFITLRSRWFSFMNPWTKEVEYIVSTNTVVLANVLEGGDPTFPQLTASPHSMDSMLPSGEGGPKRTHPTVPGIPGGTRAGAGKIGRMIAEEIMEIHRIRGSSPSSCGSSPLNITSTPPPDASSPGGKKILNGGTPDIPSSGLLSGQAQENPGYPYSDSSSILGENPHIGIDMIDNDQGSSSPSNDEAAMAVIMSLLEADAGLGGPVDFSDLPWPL

## MDGAVMEGPLFLQSQRFGTKRWRKTWAVLYPASPHGVARLEFFDHKGSSSGGGRGSSRRLDCKVIRLAECVSVAPVTVETPPEPGATAFRLDTAQRSHLLAADAPSSAAWVQTLCRNAFPKGSWTLAPTDNPPKLSALEMLENSLYSPTWEGSQFWVTVQRTEAAERCGLHGSYVLRVEAERLTLLTVGAQSQILEPLLSWPYTLLRRYGRDKVMFSFEAGRRCPSGPGTFTFQTAQGNDIFQAVETAIHRQKAQGKAGQGHDVLRADSHEGEVAEGKLPSPPGPQELLDSPPALYAEPLDSLRIAPCPSQDSLYSDPLDSTSAQAGEGVQRKKPLYWDLYEHAQQQLLKAKLTDPKEDPIYDEPEGLAPVPPQGLYDLPREPKDAWWCQARVKEEGYELPYNPATDDYAVPPPRSTKPLLAPKPQGPAFPEPGTATGSGIKSHNSALYSQVQKSGASGSWDCGLSRVGTDKTGVKSEGST [DOK1]
HeLa Kyoto [1]
  solubility in G1/S (log2): -0.257
HeLa Kyoto [2]
  solubility change mitosis (log2): 0.00435

## MGMKVPGKGESGPSALLTPPMSSSSRGPGAGARRRRTRCRRCRACVRTECGDCHFCRDMKKFGGPGRMKQSCLLRQCTAPVLPHTAVCLLCGEAGKEDTVEGEEEKFGLSLMECTICNEIVHPGCLKMGKAEGVINAEIPNCWECPRCTQEGRTSKDSGEGPGRRRADNGEEGASLGSGWKLTEEPPLPPPPPRRKGPLPAGPPPEDVPGPPKRKEREAGNEPPTPRKKVKGGRERHLKKVGGDACLLRGSDPGGPGLLPPRVLNPSQAFSSCHPGLPPENWEKPKPPLASAEGPAVPSPSPQREKLERFKRMCQLLERVPDTSSSSSDSDSDSDSSGTSLSEDEAPGEARNGRRPARGSSGEKENRGGRRAVRPGSGGPLLSWPLGPAPPPRPPQLERHVVRPPPRSPEPDTLPLAAGSDHPLPRAAWLRVFQHLGPRELCICMRVCRTWSRWCYDKRLWPRMDLSRRKSLTPPMLSGVVRRQPRALDLSWTGVSKKQLMWLLNRLQGLQELVLSGCSWLSVSALGSAPLPALRLLDLRWIEDVKDSQLRELLLPPPDTKPGQTESRGRLQGVAELRLAGLELTDASLRLLLRHAPQLSALDLSHCAHVGDPSVHLLTAPTSPLRETLVHLNLAGCHRLTDHCLPLFRRCPRLRRLDLRSCRQLSPEACARLAAAGPPGPFRCPEEKLLLKDS [FBXL19]
HeLa Kyoto [1]
  solubility in G1/S (log2): -0.317
HeLa Kyoto [2]
  solubility change mitosis (log2): -0.126

## MGAVTDDEVIRKRLLIDGDGAGDDRRINLLVKSFIKWCNSGSQEEGYSQYQRMLSTLSQCEFSMGKTLLVYDMNLREMENYEKIYKEIECSIAGAHEKIAECKKQILQAKRIRKNRQEYDALAKVIQHHPDRHETLKELEALGKELEHLSHIKESVEDKLELRRKQFHVLLSTIHELQQTLENDEKLSEVEEAQEASMETDPKP [THOC7]
HeLa Kyoto [1]
  solubility in G1/S (log2): -0.022
HeLa Kyoto [2]
  solubility change mitosis (log2): 0.387

## ARNTL
HeLa Kyoto [1]
  solubility in G1/S (log2): -0.0786
HeLa Kyoto [2]
  solubility change mitosis (log2): -0.179

## MENLPAVTTEEPTPMGRGPVGPSGGGSTRDQVRTVVMRPSVSWEKAGPEEAKAPVRGDEAPPARVAGPAAGTPPCQMGVYPTDLTLQLLAVRRKSRLRDPGLQQTLRGQLRLLENDSREMARVLGELSARLLSIHSDQDRIVVTFKTFEEIWKFSTYHALGFTHHCLANLLMDQAFWLLLPSEEEETAIQVHVDENALRLTHESLLIQEGPFFVLCPDHHVRVMTGPRDAGNGPQALRQASGAPQGEAAPETDSSPPSPSVSSEEVAVAAAPEPLIPFHQWALRIPQDPIDDAMGGPVMPGNPLMAVGLASALADFQGSGPEEMTFRGGDLIEILGAQVPSLPWCVGRHAASGRVGFVRSSLISMQGPVSELESAIFLNEEEKSFFSEGCFSEEDARQLLRRMSGTDVCSVYSLDSVEEAETEQPQEKEIPPPCLSLEPQETLQKVKNVLEQCKTCPGCPQEPASWGLCAASSDVSLQDPEEPSFCLEAEDDWEDPEALSSLLLFLNAPGYKASFRGLYDVALPWLSSVFRSFSDEEELTGRLAQARGAAKKAGLLMALARLCFLLGRLCSRRLKLSQARVYFEEALGALEGSFGDLFLVVAVYANLASIYRKQKNREKCAQVVPKAMALLLGTPDHICSTEAEGELLQLALRRAVGGQSLQAEARACFLLARHHVHLKQPEEALPFLERLLLLHRDSGAPEAAWLSDCYLLLADIYSRKCLPHLVLSCVKVASLRTRGSLAGSLRSVNLVLQNAPQPHSLPAQTSHYLRQALASLTPGTGQALRGPLYTSLAQLYSHHGCHGPAITFMTQAVEASAIAGVRAIVDHLVALAWLHVLHGQSPVALDILQSVRDAVVASEDQEGVIANMVAVALKRTGRTRQAAESYYRALRVARDLGQQRNQAVGLANFGALCLHAGASRLAQHYLLEAVRLFSRLPLGECGRDFTHVLLQLGHLCTRQGPAQQGKGYYEWALLVAVEMGHVESQLRAVQRLCHFYSAVMPSEAQCVIYHELQLSLACKVADKVLEGQLLETISQLYLSLGTERAYKSALDYTKRSLGIFIDLQKKEKEAHAWLQAGKIYYILRQSELVDLYIQVAQNVALYTGDPNLGLELFEAAGDIFFDGAWEREKAVSFYRDRALPLAVTTGNRKAELRLCNKLVALLATLEEPQEGLEFAHMALALSITLGDRLNERVAYHRLAALQHRLGHGELAEHFYLKALSLCNSPLEFDEETLYYVKVYLVLGDIIFYDLKDPFDAAGYYQLALAAAVDLGNKKAQLKIYTRLATIYHNFLLDREKSLFFYQKARTFATELNVRRVNLPPLPLCGWAPWLAPSHPR [SH3TC1]
HeLa Kyoto [1]
  solubility in G1/S (log2): -0.47
HeLa Kyoto [2]
  solubility change mitosis (log2): 0.0532

## EVPL
HeLa Kyoto [1]
  solubility in G1/S (log2): -0.382
HeLa Kyoto [2]
  solubility change mitosis (log2): 0.319

## KMT2C
HeLa Kyoto [1]
  solubility in G1/S (log2): 0.137
HeLa Kyoto [2]
  solubility change mitosis (log2): -0.0115

## MEGVELKEEWQDEDFPIPLPEDDSIEADILAITGPEDQPGSLEVNGNKVRKKLMAPDISLTLDPSDGSVLSDDLDESGEIDLDGLDTPSENSNEFEWEDDLPKPKTTEVIRKGSITEYTAAEEKEDGRRWRMFRIGEQDHRVDMKAIEPYKKVISHGGYYGDGLNAIVVFAVCFMPESSQPNYRYLMDNLFKYVIGTLELLVAENYMIVYLNGATTRRKMPSLGWLRKCYQQIDRRLRKNLKSLIIVHPSWFIRTLLAVTRPFISSKFSQKIRYVFNLAELAELVPMEYVGIPECIKQVDQELNGKQDEPKNEQ [BNIP2]
HeLa Kyoto [1]
  solubility in G1/S (log2): 0.0256
HeLa Kyoto [2]
  solubility change mitosis (log2): -0.366

## MSTTLLSAFYDVDFLCKTEKSLANLNLNNMLDKKAVGTPVAAAPSSGFAPGFLRRHSASNLHALAHPAPSPGSCSPKFPGAANGSSCGSAAAGGPTSYGTLKEPSGGGGTALLNKENKFRDRSFSENGDRSQHLLHLQQQQKGGGGSQINSTRYKTELCRPFEESGTCKYGEKCQFAHGFHELRSLTRHPKYKTELCRTFHTIGFCPYGPRCHFIHNADERRPAPSGGASGDLRAFGTRDALHLGFPREPRPKLHHSLSFSGFPSGHHQPPGGLESPLLLDSPTSRTPPPPSCSSASSCSSSASSCSSASAASTPSGAPTCCASAAAAAAAALLYGTGGAEDLLAPGAPCAACSSASCANNAFAFGPELSSLITPLAIQTHNFAAVAAAAYYRSQQQQQQQGLAPPAQPPAPPSATLPAGAAAPPSPPFSFQLPRRLSDSPVFDAPPSPPDSLSDRDSYLSGSLSSGSLSGSESPSLDPGRRLPIFSRLSISDD [ZFP36L2]
HeLa Kyoto [1]
  solubility in G1/S (log2): 0.322
HeLa Kyoto [2]
  solubility change mitosis (log2): -0.261

## MVMAALSLVAACWGRAAADESVQLPAAPGSSVRARETMVSVTMATSEWIQFFKEAGIPPGPAVNYAVMFVDNRIQKSMLLDLNKEIMNELGVTVVGDIIAILKHAKVVHRQDMCKAATESVPCSPSPLAGEIRRGTSAASRMITNSLNHDSPPSTPPRRPDTSTSKISVTVSNKMAAKSAKATAALARREEESLAVPAKRRRVTAEMEGKYVINMPKGTTPRTRKILEQQQAAKGLHRTSVFDRLGAETKADTTTGSKPTGVFSRLGATPETDEDLAWDSDNDSSSSVLQYAGVLKKLGRGPAKASPQPALTVKAKATSSATTAAAPTLRRLALSSRSGLERKPESLSKVSIIKRLGAAALVPEAQDSQVTSTKSKSSAEVKVTIKRTLVGPRGSSSSEGLGAQMDHAGTVSVFKRLGRRTF [C19ORF47]
HeLa Kyoto [1]
  solubility in G1/S (log2): -0.824
HeLa Kyoto [2]
  solubility change mitosis (log2): 1.04

## MEPQVTLNVTFKNEIQSFLVSDPENTTWADIEAMVKVSFDLNTIQIKYLDEENEEVSINSQGEYEEALKMAVKQGNQLQMQVHEGHHVVDEAPPPVVGAKRLAARAGKKPLAHYSSLVRVLGSDMKTPEDPAVQSFPLVPCDTDQPQDKPPDWFTSYLETFREQVVNETVEKLEQKLHEKLVLQNPSLGSCPSEVSMPTSEETLFLPENQFSWHIACNNCQRRIVGVRYQCSLCPSYNICEDCEAGPYGHDTNHVLLKLRRPVVGSSEPFCHSKYSTPRLPAALEQVRLQKQVDKNFLKAEKQRLRAEKKQRKAEVKELKKQLKLHRKIHLWNSIHGLQSPKSPLGRPESLLQSNTLMLPLQPCTSVMPMLSAAFVDENLPDGTHLQPGTKFIKHWRMKNTGNVKWSADTKLKFMWGNLTLASTEKKDVLVPCLKAGHVGVVSVEFIAPALEGTYTSHWRLSHKGQQFGPRVWCSIIVDPFPSEESPDNIEKGMISSSKTDDLTCQQEETFLLAKEERQLGEVTEQTEGTAACIPQKAKNVASERELYIPSVDLLTAQDLLSFELLDINIVQELERVPHNTPVDVTPCMSPLPHDSPLIEKPGLGQIEEENEGAGFKALPDSMVSVKRKAENIASVEEAEEDLSGTQFVCETVIRSLTLDAAPDHNPPCRQKSLQMTFALPEGPLGNEKEEIIHIAEEEAVMEEEEDEEDEEEEDELKDEVQSQSSASSEDYIIILPECFDTSRPLGDSMYSSALSQPGLERGAEGKPGVEAGQEPAEAGERLPGGENQPQEHSISDILTTSQTLETVPLIPEVVELPPSLPRSSPCVHHHGSPGVDLPVTIPEVSSVPDQIRGEPRGSSGLVNSRQKSYDHSRHHHGSSIAGGLVKGALSVAASAYKALFAGPPVTAQPIISEDQTAALMAHLFEMGFCDRQLNLRLLKKHNYNILQVVTELLQLNNNDWYSQRY [NBR1]
HeLa Kyoto [1]
  solubility in G1/S (log2): -0.371
HeLa Kyoto [2]
  solubility change mitosis (log2): 0.193

## MAAPVLLRVSVPRWERVARYAVCAAGILLSIYAYHVEREKERDPEHRALCDLGPWVKCSAALASRWGRGFGLLGSIFGKDGVLNQPNSVFGLIFYILQLLLGMTASAVAALILMTSSIMSVVGSLYLAYILYFVLKEFCIICIVTYVLNFLLLIINYKRLVYLNEAWKRQLQPKQD [VKORC1L1]
HeLa Kyoto [1]
  solubility in G1/S (log2): -0.56
HeLa Kyoto [2]
  solubility change mitosis (log2): -0.107

## MALEGMSKRKRKRSVQEGENPDDGVRGSPPEDYRLGQVASSLFRGEHHSRGGTGRLASLFSSLEPQIQPVYVPVPKQTIKKTKRNEEEESTSQIERPLSQEPAKKVKAKKKHTNAEKKLADRESALASADLEEEIHQKQGQKRKNSQPGVKVADRKILDDTEDTVVSQRKKIQINQEEERLKNERTVFVGNLPVTCNKKKLKSFFKEYGQIESVRFRSLIPAEGTLSKKLAAIKRKIHPDQKNINAYVVFKEESAATQALKRNGAQIADGFRIRVDLASETSSRDKRSVFVGNLPYKVEESAIEKHFLDCGSIMAVRIVRDKMTGIGKGFGYVLFENTDSVHLALKLNNSELMGRKLRVMRSVNKEKFKQQNSNPRLKNVSKPKQGLNFTSKTAEGHPKSLFIGEKAVLLKTKKKGQKKSGRPKKQRKQK [RBM34]
HeLa Kyoto [1]
  solubility in G1/S (log2): -2.26
HeLa Kyoto [2]
  solubility change mitosis (log2): 1.46

## MAKPAATAAAASEELSQVPDEELLRWSKEELARRLRRAEGEKVGLMLEHGGLMRDVNRRLQQHLLEIRGLKDVNQRLQDDNQELRELCCFLDDDRQKGRKLAREWQRFGRHAAGAVWHEVARSQQKLRELEARQEALLRENLELKELVLLLDEERAALAATGAASGGGGGGGGAGSRSSIDSQASLSGPLSGGAPGAGARDVGDGSSTSSAGSGGSPDHHHHVPPPLLPPGPHKAPDGKAGATRRSLDDLSAPPHHRSIPNGLHDPSSTYIRQLESKVRLLEGDKLLAQQAGSGEFRTLRKGFSPYHSESQLASLPPSYQDSLQNGPACPAPELPSPPSAGYSPAGQKPEAVVHAMKVLEVHENLDRQLQDSCEEDLSEKEKAIVREMCNVVWRKLGDAASSKPSIRQHLSGNQFKGPL [CCDC85C]
HeLa Kyoto [1]
  solubility in G1/S (log2): 0.216
HeLa Kyoto [2]
  solubility change mitosis (log2): 0.214
